Source: article PMC4252038, “H2O2 Inhibits ABA-Signaling Protein Phosphatase HAB1” (PLoS ONE, 2014)

Target: the molecule itself
Experiment: SEC; size exclusion chromatography of His6-MBP-HAB1(171–511 aa) treated with 0.3 mM H2O2 for 30 min at 30°C; monomer to disulfide-linked dimer

B1: His6-MBP-HAB1(171–511 aa) wild type (domain or fragment, Arabidopsis thaliana, UniProt Q9CAJ0 171-511, looked up)
chain: NSNHLVKGRSVYELDCIPLWGTVSIQGNRSEMEDAFAVSPHFLKLPIKMLMGDHEGMSPSLTHLTGHFFGVYDGHGGHKVADYCRDRLHFALAEEIERIKDELCKRNTGEGRQVQWDKVFTSCFLTVDGEIEGKIGRAVVGSSDKVLEAVASETVGSTAVVALVCSSHIVVSNCGDSRAVLFRGKEAMPLSVDHKPDREDEYARIENAGGKVIQWQGARVFGVLAMSRSIGDRYLKPYVIPEPEVTFMPRSREDECLILASDGLWDVMNNQEVCEIARRRILMWHKKNGAPPLAERGKGIDPACQAAADYLSMLALQKGSKDNISIIVIDLKAQRKFKTRT
notes: HAB1 protein phosphatase 2C, Arabidopsis thaliana, phosphatase domain, residues 171-511; In some assays the protein was treated with 0.3 mM or 1 mM H2O2 (30 min, 30°C) beforehand; the treatment is told by the assay; After 0.3 mM H2O2 it is a mixture of monomers and disulfide-linked dimers (C186, C274), after 1 mM higher oligomers; also called HAB1 phosphatase domain; wild type HAB1; source: E. …
B1 was tested. Which “stoichiometry N” value did it give?
Its value is 2.
